Our source for the Kd values is patent US20260055153A1 (published 2026).

The target of the experiment is R1-E5. In words: BLI. On the technique in general: In BLI a coated tip is dipped into the sample, and binding shifts an interference pattern.

B1: IL-15Rβ (receptor)
chain: AVNGTSQFTCFYNSRANISCVWSQDGALQDTSCQVHAWPDRRRWNQTCELLPVSQASWACNLILGAPDSQKLTTVDIVTLRVLCREGVRWRVMAIQDFKPFENLRLMAPISLQVVHVETHRCNISWEISQASHYFERHLEFEARTLSPGHTWEEAPLLTLKQKQEWICLETLTPDTQYEFQVRVKPLQGEFTTWSPWSQPLAFRTKPAALGKD
A word on the Kd: it is a measure of binding affinity in units of concentration. Lower therefore signals tighter binding. Regarding B1, the Kd came out at 43 nM.
